Results from the supplement of paper PMC9112550, “Optimization of the antimicrobial peptide Bac7 by deep mutational scanning” (BMC Biology, 2022).

tested on: Escherichia coli TOP10; test: shrunken log2 fold change of peptide-encoding DNA abundance (4.5 h post-induction vs induction); higher = less antimicrobial activity (less host growth inhibition); conditions: time post-induction: 4.5 h; library: site-saturation at positions 5, 18, 19, 20
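Note: peptides expressed intracellularly from a pBAD plasmid library in pooled LB shake-flask culture, induced with 0.3% L-arabinose, DNA abundance read by NGS, three biological replicates, DESeq2 with apeglm shrinkage.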

Sequence | shrunken log2 fold change
RRIRQRPPRLPRPRPRPCRSPRP | 0.00709
RRIRSRPPRLPRPRPRPLTPPRP | 0.166
RRIRIRPPRLPRPRPRPFALPRP | -0.178
RRIRWRPPRLPRPRPRPGYPPRP | -0.251
RRIRCRPPRLPRPRPRPNMCPRP | -0.222
RRIRSRPPRLPRPRPRPAMRPRP | 0.588
RRIRNRPPRLPRPRPRPNLIPRP | -0.369
RRIRFRPPRLPRPRPRPAQQPRP | -0.0456
RRIRIRPPRLPRPRPRPCLTPRP | 0.0747
RRIRPRPPRLPRPRPRPHTAPRP | -0.205
RRIRFRPPRLPRPRPRPKNIPRP | -0.485
RRIRSRPPRLPRPRPRPQHDPRP | -0.227
RRIRWRPPRLPRPRPRPDVSPRP | 0.265
RRIRVRPPRLPRPRPRPRPPPRP | 0.843
RRIRGRPPRLPRPRPRPIARPRP | 0.792
RRIRKRPPRLPRPRPRPAELPRP | 0.552
RRIRVRPPRLPRPRPRPKYGPRP | -0.141
RRIRYRPPRLPRPRPRPPRPPRP | 0.637
RRIRFRPPRLPRPRPRPIAYPRP | -0.156
RRIRMRPPRLPRPRPRPDNNPRP | 0.274
RRIRERPPRLPRPRPRPEPFPRP | -0.0469
RRIRKRPPRLPRPRPRPEFQPRP | 0.0241
RRIRRRPPRLPRPRPRPKYGPRP | -0.000734
RRIRCRPPRLPRPRPRPELAPRP | 0.403
RRIRMRPPRLPRPRPRPNRCPRP | 0.172

Sequence | shrunken log2 fold change
RRIRLRPPRLPRPRPRPMEPPRP | 0.101
RRIRHRPPRLPRPRPRPGNNPRP | -0.00857
RRIRWRPPRLPRPRPRPQHWPRP | 0.0364
RRIRDRPPRLPRPRPRPVWFPRP | 1.26
RRIRTRPPRLPRPRPRPLRTPRP | 0.26
RRIRRRPPRLPRPRPRPGAVPRP | 0.431
RRIRKRPPRLPRPRPRPYNRPRP | -0.0322
RRIRTRPPRLPRPRPRPICGPRP | 0.0749
RRIRDRPPRLPRPRPRPANAPRP | -0.00277
RRIRTRPPRLPRPRPRPNCWPRP | 0.0359
RRIRVRPPRLPRPRPRPIVAPRP | -0.00399
RRIRPRPPRLPRPRPRPCQIPRP | -0.0156
RRIRERPPRLPRPRPRPEVKPRP | -0.0524
RRIRGRPPRLPRPRPRPDLVPRP | 0.529
RRIRSRPPRLPRPRPRPFPLPRP | -0.886
RRIRERPPRLPRPRPRPHDSPRP | -0.00973
RRIRLRPPRLPRPRPRPIDYPRP | -0.0867
RRIRERPPRLPRPRPRPICIPRP | -0.0731
RRIRHRPPRLPRPRPRPEYDPRP | -0.0789
RRIRWRPPRLPRPRPRPWKLPRP | -0.00166
RRIRGRPPRLPRPRPRPKMLPRP | 0.509
RRIRMRPPRLPRPRPRPFKHPRP | -0.306
RRIRWRPPRLPRPRPRPPMHPRP | 0.429
RRIRMRPPRLPRPRPRPGTTPRP | 1.24
RRIRQRPPRLPRPRPRPCEMPRP | -0.00121

Sequence | shrunken log2 fold change
RRIRNRPPRLPRPRPRPDSYPRP | -0.054
RRIRNRPPRLPRPRPRPASIPRP | -0.0365
RRIRYRPPRLPRPRPRPREYPRP | 0.0168
RRIRLRPPRLPRPRPRPMNNPRP | -0.604
RRIRWRPPRLPRPRPRPFHHPRP | -0.077
RRIRARPPRLPRPRPRPPYIPRP | -0.38
RRIRIRPPRLPRPRPRPRVRPRP | 0.112
RRIRMRPPRLPRPRPRPYNQPRP | -0.486
RRIRVRPPRLPRPRPRPFRMPRP | -0.247
RRIRMRPPRLPRPRPRPHIGPRP | -0.00118
RRIRVRPPRLPRPRPRPKTMPRP | 0.196
RRIRYRPPRLPRPRPRPGFFPRP | -0.205
RRIRERPPRLPRPRPRPAKLPRP | -0.0209
RRIRWRPPRLPRPRPRPNTAPRP | 0.055
RRIRDRPPRLPRPRPRPGDIPRP | -0.0568
RRIRWRPPRLPRPRPRPHVKPRP | -0.439
RRIRNRPPRLPRPRPRPEFSPRP | 0.0268
RRIRCRPPRLPRPRPRPPDLPRP | -0.00662
RRIRVRPPRLPRPRPRPPCMPRP | -0.0452
RRIRSRPPRLPRPRPRPPSHPRP | 0.103
RRIRRRPPRLPRPRPRPYQYPRP | -0.0327
RRIRYRPPRLPRPRPRPGDWPRP | 0.337
RRIRIRPPRLPRPRPRPNFVPRP | 0.0196
RRIRCRPPRLPRPRPRPPQEPRP | -0.069
RRIRLRPPRLPRPRPRPCRAPRP | 0.146

Sequence | shrunken log2 fold change
RRIRNRPPRLPRPRPRPNVFPRP | -0.43
RRIRKRPPRLPRPRPRPHTSPRP | -0.469
RRIRKRPPRLPRPRPRPDCHPRP | 0.233
RRIRPRPPRLPRPRPRPMWHPRP | -0.208
RRIRQRPPRLPRPRPRPAQQPRP | 0.00707
RRIRNRPPRLPRPRPRPDGFPRP | -0.104
RRIRARPPRLPRPRPRPEVRPRP | 0.623
RRIRVRPPRLPRPRPRPEWYPRP | -0.419
RRIRLRPPRLPRPRPRPYWMPRP | -0.257
RRIRNRPPRLPRPRPRPCTKPRP | 0.00474
RRIRGRPPRLPRPRPRPYVWPRP | 0.131
RRIRVRPPRLPRPRPRPTGTPRP | 0.699
RRIRYRPPRLPRPRPRPSMNPRP | -0.863
RRIRWRPPRLPRPRPRPYKTPRP | -0.0554
RRIRRRPPRLPRPRPRPWSPPRP | 0.186
RRIRLRPPRLPRPRPRPGHAPRP | 0.21
RRIRRRPPRLPRPRPRPDFGPRP | 0.0803
RRIRMRPPRLPRPRPRPNNYPRP | 0.0147
RRIRSRPPRLPRPRPRPCEPPRP | -1.02
RRIRRRPPRLPRPRPRPVQRPRP | 0.254
RRIRQRPPRLPRPRPRPCQNPRP | -0.173
RRIRQRPPRLPRPRPRPSREPRP | 0.111
RRIRDRPPRLPRPRPRPQLAPRP | 0.505
RRIRQRPPRLPRPRPRPMACPRP | -0.159
RRIRIRPPRLPRPRPRPTNTPRP | -0.45

Sequence | shrunken log2 fold change
RRIRFRPPRLPRPRPRPMWPPRP | -0.0873
RRIRKRPPRLPRPRPRPMHYPRP | -0.0252
RRIRTRPPRLPRPRPRPFGQPRP | -0.0675
RRIRHRPPRLPRPRPRPEWFPRP | -0.0468
RRIRHRPPRLPRPRPRPVKHPRP | 0.0596
RRIRRRPPRLPRPRPRPPHAPRP | 1.52
RRIRHRPPRLPRPRPRPKGLPRP | 0.0749
RRIRIRPPRLPRPRPRPASDPRP | -0.077
RRIRHRPPRLPRPRPRPVSLPRP | -0.0931
RRIRDRPPRLPRPRPRPGGGPRP | 1.08
RRIRQRPPRLPRPRPRPHATPRP | -0.0615
RRIRMRPPRLPRPRPRPFSKPRP | -0.284
RRIRLRPPRLPRPRPRPEEGPRP | -0.115
RRIRHRPPRLPRPRPRPKGHPRP | -0.311
RRIRLRPPRLPRPRPRPWKKPRP | -0.279
RRIRHRPPRLPRPRPRPHQAPRP | -0.0163
RRIRERPPRLPRPRPRPSRMPRP | -0.0294
RRIRERPPRLPRPRPRPLASPRP | 0.16
RRIRQRPPRLPRPRPRPCYYPRP | -0.265
RRIRERPPRLPRPRPRPTHMPRP | -0.182
RRIRNRPPRLPRPRPRPCEAPRP | -0.18
RRIRRRPPRLPRPRPRPDCEPRP | 0.363
RRIRKRPPRLPRPRPRPDIGPRP | -0.0485
RRIRYRPPRLPRPRPRPPNHPRP | -0.626
RRIRDRPPRLPRPRPRPTNQPRP | -0.00895
